Data set [1] concerns the target T1, lsy-27 (F47H4.1) (Caenorhabditis elegans) (UniProt O45526).
T1 sequence: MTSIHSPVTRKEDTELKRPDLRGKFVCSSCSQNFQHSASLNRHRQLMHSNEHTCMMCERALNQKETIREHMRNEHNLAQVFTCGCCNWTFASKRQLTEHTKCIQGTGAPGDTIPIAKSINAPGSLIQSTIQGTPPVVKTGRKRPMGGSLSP

Data set [2] has as its target T2, ztf-29 (Y66D12A.12) (Caenorhabditis elegans) (UniProt Q95Q03).
T2 sequence: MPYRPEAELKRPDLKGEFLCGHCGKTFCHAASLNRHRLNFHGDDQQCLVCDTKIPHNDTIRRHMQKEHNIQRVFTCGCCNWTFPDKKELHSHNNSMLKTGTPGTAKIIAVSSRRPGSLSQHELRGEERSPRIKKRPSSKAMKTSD

For data set [3], the target named is T3, lsl-1 (F52F12.4) (Caenorhabditis elegans) (UniProt O02273).
T3 sequence: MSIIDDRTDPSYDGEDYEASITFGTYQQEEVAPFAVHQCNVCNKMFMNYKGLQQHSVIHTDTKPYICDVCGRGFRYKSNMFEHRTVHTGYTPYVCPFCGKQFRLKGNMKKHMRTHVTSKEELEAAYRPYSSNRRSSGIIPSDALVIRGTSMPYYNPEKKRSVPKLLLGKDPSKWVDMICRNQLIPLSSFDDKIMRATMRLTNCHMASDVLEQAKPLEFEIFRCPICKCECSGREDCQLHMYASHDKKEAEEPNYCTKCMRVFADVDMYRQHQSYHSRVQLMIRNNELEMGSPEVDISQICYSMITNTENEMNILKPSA

Data set [4] relates to T4, syd-9 (ZK867.1) (Caenorhabditis elegans).
T4 sequence: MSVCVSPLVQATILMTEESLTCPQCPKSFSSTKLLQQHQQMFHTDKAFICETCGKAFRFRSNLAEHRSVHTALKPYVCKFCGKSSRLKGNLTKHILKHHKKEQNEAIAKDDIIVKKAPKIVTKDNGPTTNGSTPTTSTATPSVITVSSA

Data set [5] addresses klf-3 (F54H5.4) (Caenorhabditis elegans) (UniProt Q65ZG6).
The target in data set [6] is T5, F52B5.7 (F52B5.7) (Caenorhabditis elegans) (UniProt Q7YWZ7).
T5 sequence: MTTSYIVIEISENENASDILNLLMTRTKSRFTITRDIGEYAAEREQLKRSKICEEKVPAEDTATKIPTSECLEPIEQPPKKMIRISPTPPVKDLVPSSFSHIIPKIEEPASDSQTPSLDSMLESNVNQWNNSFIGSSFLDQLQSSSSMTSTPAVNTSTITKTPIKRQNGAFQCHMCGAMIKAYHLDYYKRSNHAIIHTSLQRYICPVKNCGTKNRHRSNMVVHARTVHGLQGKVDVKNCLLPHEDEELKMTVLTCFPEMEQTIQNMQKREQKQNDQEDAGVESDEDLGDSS

Data set [7] deals with T6, ham-2 (C07A12.1) (Caenorhabditis elegans) (UniProt H2KYH4).
T6 sequence: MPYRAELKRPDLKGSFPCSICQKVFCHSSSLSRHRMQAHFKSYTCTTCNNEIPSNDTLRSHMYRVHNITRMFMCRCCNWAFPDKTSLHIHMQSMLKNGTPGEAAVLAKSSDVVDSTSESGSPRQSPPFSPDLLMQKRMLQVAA

In data set [8] the target is T7, che-1 (C55B7.12) (Caenorhabditis elegans) (UniProt Q966L8).
T7 sequence: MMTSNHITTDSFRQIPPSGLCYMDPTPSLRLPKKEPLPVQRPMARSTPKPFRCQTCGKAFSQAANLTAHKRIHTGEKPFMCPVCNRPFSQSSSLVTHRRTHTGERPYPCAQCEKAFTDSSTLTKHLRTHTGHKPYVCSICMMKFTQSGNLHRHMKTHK

Sequence of klf-3 (F54H5.4) (Caenorhabditis elegans) (Q65ZG6 180-315): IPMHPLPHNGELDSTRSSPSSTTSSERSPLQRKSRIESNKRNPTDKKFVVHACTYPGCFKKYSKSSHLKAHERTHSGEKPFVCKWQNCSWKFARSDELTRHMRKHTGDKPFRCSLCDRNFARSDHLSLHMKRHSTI

For the sequence “GAAGCTTC (double strand) [8-mer GAAGCTTC]”, the binding signal (PBM E-score (-0.5 to 0.5)) turned out to be 0.496 in data set [1] and 0.494 in data set [2].
As to “TACTGTAA (double strand) [8-mer TACTGTAA]”, the binding signal (PBM E-score (-0.5 to 0.5)) in data set [3] stood at 0.49; in data set [4], 0.494.
As to “AAGCTTCT (double strand) [8-mer AAGCTTCT]”, the figures for the binding signal (PBM E-score (-0.5 to 0.5)) in data set [1] and in data set [2] were 0.496 and 0.49, respectively.
In data set [5], “CAACGCCC (double strand) [8-mer CAACGCCC]” showed a binding signal (PBM E-score (-0.5 to 0.5)) of 0.482.
Still for that read-out and setting: for “AACGCCCA (double strand) [8-mer AACGCCCA]” the value was 0.483.
Consider “ATGGGTAC (double strand) [8-mer ATGGGTAC]”, for which, in data set [6], the binding signal (PBM E-score (-0.5 to 0.5)) amounted to 0.488.
“CCCCCATA (double strand) [8-mer CCCCCATA]” came in with a binding signal (PBM E-score (-0.5 to 0.5)) in data set [6] of 0.485.
In the case of “CCCGCCCA (double strand) [8-mer CCCGCCCA]”, in data set [5], the binding signal (PBM E-score (-0.5 to 0.5)) is 0.485.
The sequence “CTACCGTA (double strand) [8-mer CTACCGTA]” displayed a binding signal (PBM E-score (-0.5 to 0.5)) in data set [3] of 0.498.
In data set [3], “CTACTGTA (double strand) [8-mer CTACTGTA]” had a binding signal (PBM E-score (-0.5 to 0.5)) of 0.491.
Consider “GAAGCTTA (double strand) [8-mer GAAGCTTA]”, for which the binding signal (PBM E-score (-0.5 to 0.5)) was found to be 0.482 in data set [7], 0.493 in data set [1] and 0.485 in data set [2].
On the same counts, the results for “AAAGCTTT (double strand) [8-mer AAAGCTTT]” are 0.478, 0.491 and 0.496.
“ATACAGTA (double strand) [8-mer ATACAGTA]”: the binding signal (PBM E-score (-0.5 to 0.5)) worked out at 0.491 in data set [3] and 0.492 in data set [4].
In turn, “AAGGGCGT (double strand) [8-mer AAGGGCGT]” displayed a binding signal (PBM E-score (-0.5 to 0.5)) in data set [5] of 0.487.
Sequence “ATACGGTA (double strand) [8-mer ATACGGTA]” gave a binding signal (PBM E-score (-0.5 to 0.5)) in data set [3] of 0.495.
Consider “CCACGCCC (double strand) [8-mer CCACGCCC]”, for which the binding signal (PBM E-score (-0.5 to 0.5)) in data set [5] is 0.494.
With “ATGGATAC (double strand) [8-mer ATGGATAC]”, the binding signal (PBM E-score (-0.5 to 0.5)) in data set [6] was determined as 0.485.
Same read-out and setting: under “CCCCATAA (double strand) [8-mer CCCCATAA]” stands 0.495; under “ACCCCATA (double strand) [8-mer ACCCCATA]”, 0.496.
In data set [5], “CCCCGCCC (double strand) [8-mer CCCCGCCC]” returned a binding signal (PBM E-score (-0.5 to 0.5)) of 0.489.
On to “ATGGGGTA (double strand) [8-mer ATGGGGTA]”, for which the binding signal (PBM E-score (-0.5 to 0.5)) in data set [6] worked out at 0.488.
With “CTACAGTA (double strand) [8-mer CTACAGTA]”, the binding signal (PBM E-score (-0.5 to 0.5)) came out at 0.498 in data set [3] and 0.49 in data set [4].
Taken in the same sequence, the figures for “ATACTGTA (double strand) [8-mer ATACTGTA]” were 0.494 and 0.493.
“CTACGGTA (double strand) [8-mer CTACGGTA]” had a binding signal (PBM E-score (-0.5 to 0.5)) in data set [3] of 0.491.
Take “AAAGCTTC (double strand) [8-mer AAAGCTTC]”: the binding signal (PBM E-score (-0.5 to 0.5)) was 0.492 in data set [1] and 0.486 in data set [2].
“CACGCCCA (double strand) [8-mer CACGCCCA]” displayed a binding signal (PBM E-score (-0.5 to 0.5)) in data set [5] of 0.49.
The sequence “TACGCCCA (double strand) [8-mer TACGCCCA]” returned a binding signal (PBM E-score (-0.5 to 0.5)) in data set [5] of 0.486.
Turning to “AGGGCGTA (double strand) [8-mer AGGGCGTA]”, the binding signal (PBM E-score (-0.5 to 0.5)) in data set [5] was found to be 0.484.
With “CCCATGGG (double strand) [8-mer CCCATGGG]”, the binding signal (PBM E-score (-0.5 to 0.5)) in data set [6] stood at 0.485.
The sequence “TACCGTAA (double strand) [8-mer TACCGTAA]” gave a binding signal (PBM E-score (-0.5 to 0.5)) in data set [3] of 0.493.
For “CCCCATGA (double strand) [8-mer CCCCATGA]”, the binding signal (PBM E-score (-0.5 to 0.5)) in data set [6] is 0.495.
“ACCCATGG (double strand) [8-mer ACCCATGG]” gave a binding signal (PBM E-score (-0.5 to 0.5)) in data set [6] of 0.485.
The sequence “TACCCATA (double strand) [8-mer TACCCATA]” registered a binding signal (PBM E-score (-0.5 to 0.5)) in data set [6] of 0.485.
The sequence “CCATGGGG (double strand) [8-mer CCATGGGG]” registered a binding signal (PBM E-score (-0.5 to 0.5)) in data set [6] of 0.482.
For the sequence “ATACGCCC (double strand) [8-mer ATACGCCC]”, the binding signal (PBM E-score (-0.5 to 0.5)) in data set [5] stood at 0.48.
“GGCTTCAC (double strand) [8-mer GGCTTCAC]”: the figures for the binding signal (PBM E-score (-0.5 to 0.5)) in data set [8] and in data set [1] were 0.492 and 0.49, respectively.
“AAGCTTAA (double strand) [8-mer AAGCTTAA]”: the binding signal (PBM E-score (-0.5 to 0.5)) in data set [7] was found to be 0.493; in data set [1], 0.493; in data set [2], 0.494.
On to “ACGCCCAT (double strand) [8-mer ACGCCCAT]”, for which, in data set [5], the binding signal (PBM E-score (-0.5 to 0.5)) is 0.49.
“GTACAGTA (double strand) [8-mer GTACAGTA]”: the binding signal (PBM E-score (-0.5 to 0.5)) in data set [3] and in data set [4] was 0.495 throughout.
As to “ACCCCATG (double strand) [8-mer ACCCCATG]”, in data set [6], the binding signal (PBM E-score (-0.5 to 0.5)) came to 0.486.
The sequence “GCCCCATA (double strand) [8-mer GCCCCATA]” gave a binding signal (PBM E-score (-0.5 to 0.5)) in data set [6] of 0.487.
The same measure, in the same setting: under “GTACCATA (double strand) [8-mer GTACCATA]” stands 0.487.
As to “CTACGCCC (double strand) [8-mer CTACGCCC]”, the binding signal (PBM E-score (-0.5 to 0.5)) in data set [5] worked out at 0.48.
In the case of “TACGGTAA (double strand) [8-mer TACGGTAA]”, the binding signal (PBM E-score (-0.5 to 0.5)) in data set [3] is 0.492.
For “AAGCTTTA (double strand) [8-mer AAGCTTTA]”, the binding signal (PBM E-score (-0.5 to 0.5)) amounted to 0.482 in data set [7], 0.49 in data set [1] and 0.494 in data set [2].
Turning to “GTACTGTA (double strand) [8-mer GTACTGTA]”, the binding signal (PBM E-score (-0.5 to 0.5)) in data set [3] stood at 0.497; in data set [4], 0.496.
Regarding “GTACGGTA (double strand) [8-mer GTACGGTA]”, the binding signal (PBM E-score (-0.5 to 0.5)) in data set [3] came out at 0.494; in data set [4], 0.492.
For the sequence “AGGGCGTG (double strand) [8-mer AGGGCGTG]”, the binding signal (PBM E-score (-0.5 to 0.5)) in data set [5] stood at 0.491.
As for “ATACCGTA (double strand) [8-mer ATACCGTA]”, in data set [3], the binding signal (PBM E-score (-0.5 to 0.5)) was determined as 0.492.
Regarding “CCCCATAG (double strand) [8-mer CCCCATAG]”, the binding signal (PBM E-score (-0.5 to 0.5)) in data set [6] stood at 0.492.
Turning to “TACAGTAA (double strand) [8-mer TACAGTAA]”, the binding signal (PBM E-score (-0.5 to 0.5)) in data set [3] was found to be 0.495; in data set [4], 0.494.
“AAGCTTCA (double strand) [8-mer AAGCTTCA]”: the binding signal (PBM E-score (-0.5 to 0.5)) worked out at 0.497 in data set [1] and 0.489 in data set [2].
For “GCTTAAGC (double strand) [8-mer GCTTAAGC]”, the binding signal (PBM E-score (-0.5 to 0.5)) in data set [7] amounted to 0.493; in data set [1], 0.494; in data set [2], 0.491.
As for “CCACACCC (double strand) [8-mer CCACACCC]”, in data set [5], the binding signal (PBM E-score (-0.5 to 0.5)) was found to be 0.486.

These data come from article PMC4434323.
